In IntAct's records for PubMed 19207211:

B1: Oxysterol-binding protein-related protein 3A (Arabidopsis thaliana (Mouse-ear cress)), Q9LZM1 (parent)
chain: MASNDPKNGGGFFASLASSITNFGSAMSKSVNGLMGYEGLEVINPEGSTDDAEEEAGRGRWKQEERDGYWKMMQKYIGSDVTSMVTLPVIIFEPMTMLQKMAELMEYSYLLDMADKTEDPYMRMVYASSWAISVYYAYQRTWKPFNPILGETYEMTNHNGINFIAEQVCHHPPMSAGHAENEHFAYDCTSKLKTKFLGNSIDVYPVGRTRVTLKRDGVVLDLVPPLTKVHNLIFGRTWVDSPGEMVMTNLTTGDKVVLYFQPCGWFGSGRYEVDGYVYNSAEEPKMLMTGKWNESLSYQPCDAEGEPLPGTELKEVWKVAEAPKNDKYQYTHFAHKINSFDTAPKKLLSSDSRLRPDRYALEMGDMSKSGFEKSSLEDRQRAEKKSREEKGQKFAPKWFDETEEVTPTPWGDLEVYQFNGKYSVHRATAENSEDTTDVKLTQFNPWQFQDLSA
partner: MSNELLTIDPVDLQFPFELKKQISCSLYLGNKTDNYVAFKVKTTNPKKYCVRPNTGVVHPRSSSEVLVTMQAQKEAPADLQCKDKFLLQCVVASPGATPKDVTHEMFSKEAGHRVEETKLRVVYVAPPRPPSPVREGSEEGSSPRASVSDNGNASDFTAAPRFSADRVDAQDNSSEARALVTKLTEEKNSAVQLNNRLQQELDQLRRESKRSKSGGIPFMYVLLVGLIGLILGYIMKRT

Variants of: B1
Conditions: with vap12_arath PVA12, Q9SHC8

Row | Variant | effect of a mutation on the interaction
1 | W398A;F399A;D400G;E401G;E403G | disrupting interaction
